How the values were obtained:
[1] = test system: HER2 positive SK-BR-3 human breast cancer cells; test: BiTE-induced T cell cytotoxicity by LDH release, SK-BR-3 target cells; type: cell-based
Experimental: To evaluate whether desialylation may enhance the susceptibility of tumor cells to BiTE-mediated cytotoxicity by T cells, we first constructed a BiTE molecule from a HER2-targeting scFv 4D5 and a human CD3-targeting scFv (4D5 BiTE). We then treated HER2 positive SK-BR-3 human breast cancer cells with a sialidase derived from Bifidobacterium longum subspecies infantis (B. infantis) to remove cell surface sialic acids. Following this procedure, treated cells were incubated with PBMCs from healthy human donors in the presence of 4D5 BiTE. Staining with FITC-Sambucus nigra agglutinin (SNA) that binds preferentially to sialic acid attached to terminal galactose in an a-2,6 linkage confirmed the success of cell surface desialylation. […] A similar trend was observed when 4D5 BiTE treatment was combined with a sialylation inhibitor, P-3Fax-Neu5Ac (FIG. 1, b). Next, we treated SK-BR-3 and MCF-7 breast cancer cells with 4D5 BiTE and hPBMCs in the presence or absence of B. infantis sialidase, respectively. […] The cytotoxicity enhancement is also observed with a different E: T ratio of 1:1 and the improvement of the BiTE-induced killing was sialidase dose-dependent.
(§1) Cell cytotoxicity measurement by lactate dehydrogenase (LDH) release: T cell cytotoxicity induced by BiTEs and BiTE-sialidase fusion proteins was measured by lactate dehydrogenase (LDH) release using CytoTox 96® Non-Radioactive Cytotoxicity Assay (Promega, G1780). tumor cells and hPBMCs (tumor cell:hPBMC=1:5) per well in […] media were exposed to different treatments and incubated in 96 well plates at 37° C. (unless different ratio was specified elsewhere). After 24 hours of coincubation, […] of media supernatant from each well was transferred to a new flat bottom 96 well plate and LDH release was measured using the supplier's protocol.

[2] = test system: MCF-7 breast cancer cells; test: BiTE-induced T cell cytotoxicity, MCF-7 target cells; type: cell-based, human
Experimental: (§2) To evaluate whether desialylation may enhance the susceptibility of tumor cells to BiTE-mediated cytotoxicity by T cells, we first constructed a BiTE molecule from a HER2-targeting scFv 4D5 and a human CD3-targeting scFv (4D5 BiTE). We then treated HER2 positive SK-BR-3 human breast cancer cells with a sialidase derived from Bifidobacterium longum subspecies infantis (B. infantis) to remove cell surface sialic acids. Following this procedure, treated cells were incubated with PBMCs from healthy human donors in the presence of 4D5 BiTE. Staining with FITC-Sambucus nigra agglutinin (SNA) that binds preferentially to sialic acid attached to terminal galactose in an a-2,6 linkage confirmed the success of cell surface desialylation. […]
as §1, with “(unless different ratio was specified elsewhere).” left out

PSMA-positive PC3 cells = test: PSMA BiTE-induced T cell cytotoxicity, PC3 target cells; type: cell-based, human; conditions: sialidase and PSMA BiTEs added at the same time
Experimental: as §2
as §1, with “(unless different ratio was specified elsewhere).” left out

T cells [3] = test: T cell surface activation markers (CD25, CD69, CD107a) by flow cytometry; type: cell-based, human; conditions: with 4D5 BiTEs
Experimental: (§3) Cytokine release and T cell surface activation marker measurement: For T cell cytokine release measurement, as with the cytotoxicity experiment, tumor cells and hPBMCs (tumor cell:hPBMC=1:5) were co-incubated per well in 96 well plates with different treatments in […] media at 37° C. for 24 hours. Then, […] of supernatant from each well was diluted in […] DPBS and used for IFN-γ, IL-2 and TNFα measurement. The ELISA measurement was done by ELISA MAX™ Sets. IFN-γ, IL-2 and TNFα kits (BioLegend) and the experiments were done according to the manufacturer's protocol. The exact concentration was calculated from a standard curve. For the cell surface activation marker measurement, tumor cells and hPBMCs (tumor cell:hPBMC=1:5) were co-incubated per well in 12 well plates with different treatments in 1 mL media at 37° C. for 24 hours. […] Cells were then washed twice with FACS buffer (PBS with 2.5% BSA) before being analyzed using flow cytometry. Data analysis and mean fluorescence intensity calculation were done by Flowjo. For the transcriptome analysis, 1.2 million hPBMCs and 0.1 million MDA-MB-231 cells were incubated together under the treatment of either 4 nM 4D5 BiTE or 4 nM 4D5 BiTE-sialidase (Three replicas for each condition). […]

T cells [4] = test: T cell cytokine release (IFN-γ, IL-2, TNFα) by ELISA; type: cell-based, human; conditions: MCF7 cells incubated with hPBMCs and BiTE
Experimental: as §3

[5] = test system: immune synapse between T cells and tumor cells; test: BiTE-induced immune synapse formation, confocal imaging of CD3 and actin; type: cell-based, human
Source text: Formation of the BiTE-induced immunological synapse (IS) between target cells and T cells is the essential mode of action of BiTEs. We hypothesized that the removal of cell-surface sialosides may promote stronger BiTE-induced IS formation between target tumor cells and T cells and thus better tumor cell killing. Accumulation of the TCR-CD3 complex and F-actin at the synapse is a hallmark of a stable and functional cytolytic IS in T cells. To test whether desialylation can promote IS formation, we imaged the IS formed between T cells and sialidase-treated and non-treated SK-BR-3 cells by staining F-actin and CD3. The resulting immunofluorescence was imaged by confocal microscopy. […] To assess the stability of the IS formed, we calculated the relative CD3 fluorescence intensity at the IS and the relative area of the IS.
Staining of human […] and actin for confocal imaging: Briefly, 0.4 million tumors cells were treated with 4 nM 4D5 BiTE or 4 nM 4D5 BiTE with 15 mg/ML sialidase in […] DMEM without the serum for 1 hr at 37° C. After the incubation, all the samples were washed twice using PBS before incubating with 0.4 million hPBMCs in 500 ml PBS for 30 min at 37° C. Then all the cells were transferred in 1 ml PBS to the coverslips in 12 well plates and incubated at 37° C. for 30 min to let cells attach to the coverslip. 1 ml 4% PFA was added to each well and incubated with shaking for 20 min at room temperature (RT) for cell fixing, and then each well was washed twice with ice cold PBS. […] PBST was used for washing for three times before anti-rabbit 488 (Invitrogen, 35553) and anti-mouse 594 ((Invitrogen, A-11005) secondary antibody was diluted and used for staining at RT for 30 min with shaking. Finally, samples were washed three times and each coverslip was transferred to a glass slide with mounting oil. Fingernail oil was used to seal the coverslip. Samples were analyzed on a Zeiss LSM880 with a 63× oil lens (NA 1.4). The relative mean fluorescent intensity (MFI) of […] accumulation and relative contact area of IS was calculated by imageJ.

[6] = test system: CD19+ (Daudi) and EGFR+ (A549) cells; test: BiKE-sialidase desialylation selectivity in co-culture; type: cell-based, human; conditions: 10 nM, 1h, serum-free medium, SNA or MALII staining
Experimental: We compared the desialylation activity and selectivity of BiKE-CD19-Sia and BIKE-EGFR-Sia in a co-culture assay comprising CD19+ (Daudi) and EGFR+ (A549) cells, respectively. 1:1 ratio of daudi cells and A549 cells were treated with PBS, 10 nM BiKE-CD19-Sia or 10 nM BiKE-EGFR-Sia for 1h in serum-free medium, followed by staining with SNA-biotin (targets α2,6-linker sialoglycans) or MALII-biotin (targets α2,3-linker sialoglycans) in HBSS buffer for 30 min. Next, the cell mixtures were stained by streptavidin-APC and EGFR-Pc5.5.

[7] = vs 4D5 BiTEs+hPBMCs and sialidase+hPBMCs controls
[8] = sialidase-treated vs untreated SK-BR-3 cells, 4D5 BiTE

## recombinant human CTLA-4: a high affinity ligand of CD80 [reference compound]
[1]; high concentrations of CTLA-4 added with sialidase and 4D5 BiTE
  desialylation-enhanced cytolysis with added CTLA-4: no change in the enhanced cytolysis

B1: B. infantis sialidase: sialidase derived from Bifidobacterium longum subspecies infantis, SEQ ID NO: 5 (protein, listed as Bifidobacterium longum)
chain: MTENGMMNTNNTVCGANHDGAMSLAAPGDYGVACYRIPALAEAPNGWILAAFDARPHNCQDAPQANSIVQRISKDGGRSFEPQHVVAAGHDGVDKYGYSDPSYVVDRQTGEVFLFFVKSYDAGFGTSQAGVDPSAREVLQAAVTSSIDNGVTWSEPRIITADITNSESWISRFASSGAGIQLTYGEHAGRLIQQYTIKELDGRYRAVSVFSDDHGATWHAGTPVGDHMDENKVVELSDGRVMLNSRSSDGNGCRYVAISRDGGATYGPVIRETQLPDPENNAQIARAFPDAPEGSAQAKVLLYSSSSPSDRIDGLVRVSIDDGKTWSAGRRFTTGPMAYSVIAALSHKAGGGYGLLYEGDNNNIMYTRISLDWLNGQLNVDGIGGFPLSGEGGC
[1]; tumor cells pre-treated with sialidase, hPBMCs, effector:target 5:1, vs 4D5 BiTEs alone
  4D5 BiTE-induced tumor cell killing by T cells after sialidase treatment: significantly potentiated the 4D5 BiTE-induced tumor cell killing
[1]; [7]
  killing with 4D5 BiTE and hPBMCs in presence of sialidase: stronger killing
[2]; purified T cells as effectors
  BiTE-mediated target cell killing with sialidase treatment: better BiTE-mediated target cell killing
[2]; [7]
  killing with 4D5 BiTE and hPBMCs in presence of sialidase: stronger killing
PSMA-positive PC3 cells
  PSMA BiTE-induced cytotoxicity with sialidase: stronger cytotoxicity enhancement
T cells [3]
  T cell activation (CD25 and CD69 expression) on addition of sialidase: significantly enhanced
T cells [4]
  IFN-γ secretion on addition of sialidase: significantly enhanced
[5]; SKOV-3 cells and T cells, with sialidase treatment
  BiTE-induced immune synapse formation: better IS formed
[5]; [8]
  CD3 accumulation at the immune synapse: significantly stronger CD3 accumulation
  relative immune synapse area: larger IS area

B2: BIKE-EGFR-Sia: anti-EGFR BiKE-sialidase fusion, TAL4S format, SEQ ID NO: 28 (protein)
chain: QVQLQESGPGLVKPSETLSLTCTVSGGSVSSGSYYWSWIRQPPGKGLEWIGYIYYSGSTNYNPSLKSRVTISVDTSKNQFSLKLSSVTAADTAVYYCARNPISIPAFDIWGQGTMVTVSSGGGGSGGGGSGGGGSQPVLTQPPSVSVAPGKTARITCGGNNIGSKSVHWYQQKPGQAPVLVIYYDSDRPSGIPERFSGSNSGNTATLTISRVEAGDEADYYCQVWDTSSDHVLFGGGTKLTVLGGGGSQVQLVQSGAEVKKPGESLKVSCKASGYTFTSYYMHWVRQAPGQGLEWMGIINPSGGSTSYAQKFQGRVTMTRDTSTSTVYMELSSLRSEDTAVYYCARGSAYYYDFADYWGQGTLVTVSSGGGGSGGGGSGGGGSSYVLTQPSSVSVAPGQTATISCGGHNIGSKNVHWYQQRPGQSPVLVIYQDNKRPSGIPERFSGSNSGNTATLTISGTQAMDEADYYCQVWDNYSVLFGGGTKLTVLGGGGSGGGGSGGGGSGGGGSMTENGMMNTNNTVCGANHDGAMSLAAPGDYGVACYRIPALAEAPNGWILAAFDARPHNCQDAPQANSIVQRISKDGGRSFEPQHVVAAGHDGVDKYGYSDPSYVVDRQTGEVFLFFVKSYDAGFGTSQAGVDPSAREVLQAAVTSSIDNGVTWSEPRIITADITNSESWISRFASSGAGIQLTYGEHAGRLIQQYTIKELDGRYRAVSVFSDDHGATWHAGTPVGDHMDENKVVELSDGRVMLNSRSSDGNGCRYVAISRDGGATYGPVIRETQLPDPENNAQIARAFPDAPEGSAQAKVLLYSSSSPSDRIDGLVRVSIDDGKTWSAGRRFTTGPMAYSVIAALSHKAGGGYGLLYEGDNNNIMYTRISLDWLNGQLNVDGIGGFPLSGEGGC
[6]
  selective desialylation activity: selective desilylation activity

Reference: patent US20250354133A1, “SIALIDASE FUSION MOLECULES AND RELATED USES” (The Scripps Research Institute, priority 2022, published 2025)
